Experimental data taken from PMC5725915.

Molecular target: human factor Xa (human)
Test: prothrombinase activity titration

human factor Xa (human), sequence (P00742 whole entry): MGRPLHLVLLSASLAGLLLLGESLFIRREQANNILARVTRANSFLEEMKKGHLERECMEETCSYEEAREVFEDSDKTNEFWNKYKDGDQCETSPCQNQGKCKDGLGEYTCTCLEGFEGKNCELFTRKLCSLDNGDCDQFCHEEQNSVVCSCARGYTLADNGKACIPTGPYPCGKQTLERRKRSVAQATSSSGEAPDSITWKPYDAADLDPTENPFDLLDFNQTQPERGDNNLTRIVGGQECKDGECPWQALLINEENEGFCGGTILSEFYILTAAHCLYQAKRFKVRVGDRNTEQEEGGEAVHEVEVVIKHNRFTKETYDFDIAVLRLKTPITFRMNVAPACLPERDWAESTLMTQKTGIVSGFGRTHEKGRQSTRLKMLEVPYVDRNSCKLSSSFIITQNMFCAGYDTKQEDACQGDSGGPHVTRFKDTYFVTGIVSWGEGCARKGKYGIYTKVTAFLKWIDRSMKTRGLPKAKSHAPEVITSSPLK

How did the Kd turn out when “wild-type recombinant human fV activated with thrombin (rhfVa^WT) (from UniProt P12259 29-737; P12259 1574-2224) (complex)” was run?
The Kd was 0.48 nM.
